Results: patent publication US20020103147A1

Target: transgene murine adenylylcyclase isoform VI (ACVI) with HA-tag, from the truncated construct of Example 5-2 (murine) (UniProt Q01341)
Assay: cell-based or functional assay

Sequence of transgene murine adenylylcyclase isoform VI (ACVI) with HA-tag, from the truncated construct of Example 5-2 (murine) (Q01341 whole entry, the tested form may be a part, canonical isoform): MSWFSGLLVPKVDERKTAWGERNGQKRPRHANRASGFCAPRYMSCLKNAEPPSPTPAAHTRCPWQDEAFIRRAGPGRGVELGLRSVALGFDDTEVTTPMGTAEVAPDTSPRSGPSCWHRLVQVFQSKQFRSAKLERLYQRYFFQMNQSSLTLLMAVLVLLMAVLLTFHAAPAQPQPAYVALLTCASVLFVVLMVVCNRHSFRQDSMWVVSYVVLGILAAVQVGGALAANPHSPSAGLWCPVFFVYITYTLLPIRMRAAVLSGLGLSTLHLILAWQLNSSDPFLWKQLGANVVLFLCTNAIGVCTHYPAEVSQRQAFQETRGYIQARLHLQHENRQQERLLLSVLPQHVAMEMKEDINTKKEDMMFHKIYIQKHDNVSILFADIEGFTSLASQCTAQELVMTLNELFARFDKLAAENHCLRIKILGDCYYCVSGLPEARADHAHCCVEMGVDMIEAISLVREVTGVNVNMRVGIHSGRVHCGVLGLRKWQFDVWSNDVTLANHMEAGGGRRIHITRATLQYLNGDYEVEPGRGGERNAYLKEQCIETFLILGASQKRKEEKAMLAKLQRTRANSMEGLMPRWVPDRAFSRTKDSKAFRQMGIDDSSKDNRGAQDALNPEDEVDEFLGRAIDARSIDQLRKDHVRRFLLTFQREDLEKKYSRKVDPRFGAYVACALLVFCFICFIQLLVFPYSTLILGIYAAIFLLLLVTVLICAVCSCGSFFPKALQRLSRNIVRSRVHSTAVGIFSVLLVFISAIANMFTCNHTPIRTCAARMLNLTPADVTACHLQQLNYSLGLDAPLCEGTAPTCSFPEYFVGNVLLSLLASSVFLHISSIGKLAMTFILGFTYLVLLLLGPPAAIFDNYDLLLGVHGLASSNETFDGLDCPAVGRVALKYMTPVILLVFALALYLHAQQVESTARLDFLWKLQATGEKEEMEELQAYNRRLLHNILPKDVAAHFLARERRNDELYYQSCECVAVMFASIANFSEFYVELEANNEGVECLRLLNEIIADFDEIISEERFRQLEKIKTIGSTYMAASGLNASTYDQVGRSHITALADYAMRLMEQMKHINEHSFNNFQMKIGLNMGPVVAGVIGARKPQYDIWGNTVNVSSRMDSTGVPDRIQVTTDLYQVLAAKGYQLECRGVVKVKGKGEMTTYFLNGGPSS

Substance “Gs (stimulatory GTP-binding protein) of neonatal rat cardiac myocytes (from UniProt P63095 2-394)” has a Net GTP gamma S-stimulated forskolin binding of 447 cpm.
